Data: paper PMC8184817, “Transmission of light signals from the light-oxygen-voltage core via the hydrophobic region of the β-sheet surface in aureochrome-1” (Scientific Reports, 2021)

What was measured:
Details in all cases: protein: recombinant; chain copies: 2; label: Alexa Fluor647 (EMSA); biotin (QCM); blunt; self-complementary palindrome, 2 copies
[1] = target: T1, PZ V316A (Vaucheria frigida? (VfAUREO1), UniProt A8QW55 113-348, C162S;C182S;V316A); experiment: EMSA; QCM; dark state; altered EC50; EMSA: 5% polyacrylamide gel, 25 C, dark or blue light 5 W/m2; QCM: 27 MHz, QCM buffer, 25 C; buffer, salt and pH not given (earlier papers cited); EC50 values (nM, per monomer) only in figures
T1 sequence: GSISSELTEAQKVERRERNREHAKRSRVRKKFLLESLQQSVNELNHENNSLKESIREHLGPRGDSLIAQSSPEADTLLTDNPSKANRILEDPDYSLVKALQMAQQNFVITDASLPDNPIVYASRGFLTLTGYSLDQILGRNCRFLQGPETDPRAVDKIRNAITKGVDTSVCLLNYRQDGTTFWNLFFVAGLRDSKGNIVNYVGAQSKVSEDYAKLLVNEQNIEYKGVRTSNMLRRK

[2] = target: T2, PZ V314A (Vaucheria frigida? (VfAUREO1), UniProt A8QW55 113-348, C162S;C182S;V314A); experiment: as above
T2 sequence: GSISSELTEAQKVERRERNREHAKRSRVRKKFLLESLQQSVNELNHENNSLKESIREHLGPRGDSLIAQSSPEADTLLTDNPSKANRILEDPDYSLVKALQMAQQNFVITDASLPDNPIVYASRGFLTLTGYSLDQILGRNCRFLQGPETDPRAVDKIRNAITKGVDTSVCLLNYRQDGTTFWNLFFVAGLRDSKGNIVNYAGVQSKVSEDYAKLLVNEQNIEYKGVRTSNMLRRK

[3] = target: T3, PZ Q217A (Vaucheria frigida? (VfAUREO1), UniProt A8QW55 113-348, C162S;C182S;Q217A); experiment: EMSA; QCM; dark state; EC50 similar to wtPZ; EMSA: 5% polyacrylamide gel, 25 C, dark or blue light 5 W/m2; QCM: 27 MHz, QCM buffer, 25 C; buffer, salt and pH not given (earlier papers cited); EC50 values (nM, per monomer) only in figures
T3 sequence: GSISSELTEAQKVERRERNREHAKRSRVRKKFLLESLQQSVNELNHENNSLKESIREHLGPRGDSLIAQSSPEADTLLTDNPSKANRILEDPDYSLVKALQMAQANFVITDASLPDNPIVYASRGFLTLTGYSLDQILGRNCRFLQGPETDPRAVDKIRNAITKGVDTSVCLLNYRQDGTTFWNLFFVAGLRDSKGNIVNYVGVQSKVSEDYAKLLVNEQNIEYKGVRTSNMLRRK

[4] = target: T4, PZ Q216A (Vaucheria frigida? (VfAUREO1), UniProt A8QW55 113-348, C162S;C182S;Q216A); experiment: as above
T4 sequence: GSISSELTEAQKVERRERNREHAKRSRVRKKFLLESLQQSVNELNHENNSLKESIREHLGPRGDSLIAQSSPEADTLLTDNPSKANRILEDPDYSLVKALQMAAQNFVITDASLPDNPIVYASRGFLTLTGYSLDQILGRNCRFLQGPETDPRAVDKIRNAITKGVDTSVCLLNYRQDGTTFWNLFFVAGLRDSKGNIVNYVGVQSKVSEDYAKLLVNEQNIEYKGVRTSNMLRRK

[5] = target: T5, PZ L212A (Vaucheria frigida? (VfAUREO1), UniProt A8QW55 113-348, C162S;C182S;L212A); experiment: as above
T5 sequence: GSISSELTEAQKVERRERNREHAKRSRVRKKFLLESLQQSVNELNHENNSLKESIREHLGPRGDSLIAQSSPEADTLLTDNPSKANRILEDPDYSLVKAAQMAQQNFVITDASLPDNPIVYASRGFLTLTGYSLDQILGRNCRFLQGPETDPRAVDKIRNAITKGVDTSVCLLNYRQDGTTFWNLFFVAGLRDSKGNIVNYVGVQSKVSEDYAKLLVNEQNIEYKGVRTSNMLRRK

[6] = target: T6, PZ N218A (Vaucheria frigida? (VfAUREO1), UniProt A8QW55 113-348, C162S;C182S;N218A); experiment: as above
T6 sequence: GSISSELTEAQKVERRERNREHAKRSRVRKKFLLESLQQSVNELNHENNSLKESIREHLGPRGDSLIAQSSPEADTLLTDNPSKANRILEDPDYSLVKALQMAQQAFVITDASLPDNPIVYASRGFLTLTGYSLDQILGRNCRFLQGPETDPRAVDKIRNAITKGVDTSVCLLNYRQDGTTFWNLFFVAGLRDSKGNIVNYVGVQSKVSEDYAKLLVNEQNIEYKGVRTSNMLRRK

[7] = target: T7, PZ V314I (Vaucheria frigida? (VfAUREO1), UniProt A8QW55 113-348, C162S;C182S;V314I); experiment: EMSA; QCM; dark state; EC50 similar to light; EMSA: 5% polyacrylamide gel, 25 C, dark or blue light 5 W/m2; QCM: 27 MHz, QCM buffer, 25 C; buffer, salt and pH not given (earlier papers cited); EC50 values (nM, per monomer) only in figures
T7 sequence: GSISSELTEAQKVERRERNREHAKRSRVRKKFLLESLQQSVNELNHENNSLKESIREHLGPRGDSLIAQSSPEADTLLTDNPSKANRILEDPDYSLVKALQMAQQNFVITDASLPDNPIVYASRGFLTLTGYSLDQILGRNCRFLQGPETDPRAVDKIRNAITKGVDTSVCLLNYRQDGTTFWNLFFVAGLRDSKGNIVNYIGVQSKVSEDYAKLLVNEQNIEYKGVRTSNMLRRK

Measured: binding result

B1: dsApo (dsDNA)
DNA 1: GCTGTCTGACGTCAGACAGC
DNA 2: GCTGTCTGACGTCAGACAGC
binds: all assays above
